Test results from patent publication US9587002B2, “Sequence of nucleotides and peptides GSE 24.2 of dyskerin, which can induce telomerase activity, method for obtaining same, therapeutic compositions and applications thereof” (CONSEJO SUPERIOR DE INVESTIGACIONES CIENTIFICAS, priority 2005, dated 2017).

What was measured:
JNK = test: Activation of JNK by cisplatin in 293T cell lines (Western blot); assay type: cell-based, human; settings: 293T cells stably expressing GSE 24.2 vs pLNCX; cisplatin 6 hours
Method: FIG. 2.—Cell viability and activation of the JNK and p38 death pathways in 293T cell lines: pLNCX and 24.2, treated with cisplatin. A) Cell viability. After seeding the 293T cells: expressing the empty vector (pLNCX) and GSE 24.2 (24.2) in 24-well plates, they were incubated with concentrations between 0-100 μg/ml of cisplatin. The cell viability was measured by means of the crystal violet technique after 72 hours of exposure to the drug. The data represent the mean of two experiments performed in quadruplicate. B) Activation kinetics. Subsequently, the activation of JNK and p38 was studied using antibodies that specifically recognise the active forms. As a load control, the levels of JNK-1 were detected.
The pLNCX24-2 plasmid containing GSE of the same name was transfected in a stable manner in the 293T cells and, as a control, the pLNCX empty vector was transfected. After verifying, by means of PCR, that the 24.2 cell line contained this insert (data not shown), the response to cisplatin was studied, creating a viability curve with this drug. […] JNK and p38 are MAPKs that are activated in response to genotoxic agents (Sanchez-Perez et al., 1998).
Western Blot and antibodies. 20 μg of protein were separated in SDS-polyacrylamide gels; subsequently, they were transferred to Immobilon-P membranes (Millipore) by humid transfer. […]

c-MYC promoter = test: c-MYC-luc reporter (px3.2) luciferase assay in 293T cells; assay type: cell-based, human
Method: FIG. 12.—The promoter activity of c-MYC is induced by the GSE 24.2 peptide. A) Schematic representation of the c-MYC promoter, indicating the different constructs used in the experiments. B) 293T cells were co-transfected with the specified plasmids (10 μg/DNA per million cells) and with the px3.2 c-MYC-luc reporter (1 μg per million cells). C) The specified cell lines were transfected with the px3.2 c-MYC-luc reporter (1 μg per million cells). D) The specified cell lines were transfected with the different constructs of the c-MYC-luc reporter (1 μg per million cells). After 24 hours of transfection, the luciferase activity was analysed as specified above. CMV-Renilla (0.1 μg/ml per million cells) was used as a control for the transfection efficiency. The data represent the mean of two experiments performed in quadruplicate.
FIG. 13.—The activity of the c-MYC promoter induced by the GSE 24.2 peptide is dependent on the NHE III element. A) Schematic representation of the mutations generated in the NHE III element, px3.2 (SEQ ID NO: 21), px3.2 G12A (SEQ ID NO: 22), px3.2 G17A (SEQ ID NO: 23), and px3.2 G26T/G27T (SEQ ID NO: 24). B) The 293T cells were co-transfected with different constructs (10 μg/DNA per million cells) and with the different mutants of the px3.2 reporter plasmid (1 μg per million cells). C) The cell lines specified in the figure were transfected with the different mutants of the px3.2 reporter (1 μg per million cells). After 24 h of transfection, the luciferase activity was analysed as specified above. CMV-Renilla (0.1 μg/ml per million cells) was used as a control for the transfection efficiency. The data represent the mean of two experiments performed in quadruplicate.
The transcription of the c-myc gene is controlled by two different promoters and it seems to be repressed by a domain hypersensitive to DNase located between the P0 and P1 promoters (NHEIII). Thus, four different constructs were used that contained 3.2 kb of the transcription initiation point of c-myc bound to the luciferase gene (FIG. 12a).
This transcription factor, c-myc, should therefore activate the transcription of hTERT. Thus, three mutants deleted in the c-myc promoter were used to define the necessary region for the GSE 24.2 peptide to perform its inducing activity.
Since the NHEIII region has been described as an inhibitor of the transcription of c-myc, several mutants of the NHEIII region were constructed by Guanine modification of the purine-rich region. The 27 Guanines present in the NHEIII region are involved in maintaining the secondary structure of the G-quadruplexes of the purine-rich region (Pu27). The following were mutated: G12A, located on the second guanine of the second quartet; G17A, on the second triplet of Guanines; and, finally, two consecutive Guanines (G26A/G27A) at the end of the purine-rich region (FIG. 13a). These promoter construct were transfected in cells that express, either the empty vector, or the vectors containing the DKC protein or the GSE 24.2 peptide.
Directed mutagenesis. The specific mutations of guanine in the NHEIII region of the c-myc gene promoter, px3.2, were performed using the Quickchange X-L directed mutagenesis kit (Strategene) in accordance with the manufacturer's instructions.

B1: GSE 24.2: 165-pb cDNA fragment (nucleotides 268 to 433) of human dyskerin, SEQ ID NO1, encoding peptide SEQ ID NO2, expressed from pLNCX plasmid (nucleic acid, listed as Homo sapiens)
DNA: GGTTTCATTAATCTTGACAAGCCCTCTAACCCCTCTTCCCATGAGGTGGTAGCCTGGATTCGACGGATACTTCGGGTGGAGAAGACAGGGCACAGTGGTACTCTGGATCCCAAGGTGACTGGTTGTTTAATCGTGTGCATAGAACGAGCCACTCGCTTGGTGAAG
modifications: expressed from pLNCX plasmid; CDS (1)..(165) Sequence GSE 24.2
dose of cisplatin required to activate JNK (JNK): a greater dose of cisplatin is required to activate both kinases
c-myc promoter (px3.2myc) activity, transient co-transfection (c-MYC promoter; 293T cells, GSE 24.2 plasmid vs pLNCX jointly with px3.2myc reporter): A similar result was obtained
transcription from deletion mutants of the c-myc promoter (c-MYC promoter; GSE 24.2 cells vs control cells, three deleted mutants): only those contained in the distal region of promoters P1 and P0, which include the NHEIII domain, were capable of maintaining the transcription
activation of WT px3.2 myc promoter (c-MYC promoter; cells expressing empty vector, DKC or GSE 24.2): only the WT px3,2 myc promoter was capable of being activated
activation of Pu27 (NHEIII) mutant c-myc promoters (c-MYC promoter; mutants G12A, G17A, G26A/G27A): at very low levels
c-myc promoter (px3.2myc) activity, GSE 24.2 cells vs control cells (c-MYC promoter; stable cell lines transfected with px3.2myc): three-fold increase in activity
